Assay results from IntAct's records for PubMed 17586626.

B1: Multidrug resistance protein MexA (Pseudomonas aeruginosa (strain ATCC 15692 / PAO1 / 1C / PRS 101 / LMG 12228)), P52477 (parent)
chain: MQRTPAMRVLVPALLVAISALSGCGKSEAPPPAQTPEVGIVTLEAQTVTLNTELPGRTNAFRIAEVRPQVNGIILKRLFKEGSDVKAGQQLYQIDPATYEADYQSAQANLASTQEQAQRYKLLVADQAVSKQQYADANAAYLQSKAAVEQARINLRYTKVLSPISGRIGRSAVTEGALVTNGQANAMATVQQLDPIYVDVTQPSTALLRLRRELASGQLERAGDNAAKVSLKLEDGSQYPLEGRLEFSEVSVDEGTGSVTIRAVFPNPNNELLPGMFVHAQLQEGVKQKAILAPQQGVTRDLKGQATALVVNAQNKVELRVIKADRVIGDKWLVTEGLNAGDKIITEGLQFVQPGVEVKTVPAKNVASAQKADAAPAKTDSKG
partner: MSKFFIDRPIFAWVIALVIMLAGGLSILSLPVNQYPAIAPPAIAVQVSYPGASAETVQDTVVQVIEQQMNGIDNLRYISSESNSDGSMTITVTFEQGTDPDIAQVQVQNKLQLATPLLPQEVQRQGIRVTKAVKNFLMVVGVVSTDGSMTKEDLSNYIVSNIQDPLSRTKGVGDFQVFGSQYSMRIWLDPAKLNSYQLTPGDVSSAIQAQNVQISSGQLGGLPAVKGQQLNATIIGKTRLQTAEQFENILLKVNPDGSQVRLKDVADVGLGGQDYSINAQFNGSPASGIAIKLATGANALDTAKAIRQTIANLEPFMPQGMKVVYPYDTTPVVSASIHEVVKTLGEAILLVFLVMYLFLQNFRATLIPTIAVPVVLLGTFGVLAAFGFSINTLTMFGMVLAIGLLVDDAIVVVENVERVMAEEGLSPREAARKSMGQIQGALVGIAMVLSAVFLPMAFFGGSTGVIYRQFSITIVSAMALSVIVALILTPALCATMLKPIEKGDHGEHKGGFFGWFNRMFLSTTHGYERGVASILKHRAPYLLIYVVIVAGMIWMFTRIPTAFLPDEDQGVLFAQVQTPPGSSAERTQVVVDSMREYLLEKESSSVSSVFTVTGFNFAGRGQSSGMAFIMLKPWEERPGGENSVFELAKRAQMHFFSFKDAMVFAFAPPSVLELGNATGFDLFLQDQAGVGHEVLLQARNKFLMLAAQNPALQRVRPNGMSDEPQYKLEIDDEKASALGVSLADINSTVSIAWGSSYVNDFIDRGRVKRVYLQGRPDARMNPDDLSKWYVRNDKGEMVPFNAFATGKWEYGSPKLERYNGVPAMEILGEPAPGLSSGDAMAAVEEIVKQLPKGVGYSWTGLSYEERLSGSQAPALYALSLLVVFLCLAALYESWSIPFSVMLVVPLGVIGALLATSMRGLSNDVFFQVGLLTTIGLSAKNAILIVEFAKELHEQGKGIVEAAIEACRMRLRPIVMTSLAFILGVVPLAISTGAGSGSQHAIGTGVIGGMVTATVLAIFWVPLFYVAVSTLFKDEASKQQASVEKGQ
B2: Multidrug resistance protein MexB (Pseudomonas aeruginosa (strain ATCC 15692 / PAO1 / 1C / PRS 101 / LMG 12228)), P52002 (parent)
chain: B1 partner
partner: B1 chain

Variants of: B1
Conditions: with mexb_pseae mexB, P52002
For V66M, the “effect of a mutation on the interaction” value was “increasing interaction strength”.
In the case of V259F, the “effect of a mutation on the interaction” value is reported as “increasing interaction strength”.

Variants of: B2
Conditions: with mexa_pseae mexA, P52477
With G220S the “effect of a mutation on the interaction” value was “decreasing interaction strength”.
